Residue numbers refer to the chain shown, from its start. Names may count otherwise. Values belong to the binder of their own block, whether it stands above or below them.
Legend:
[1] = target: T1, biotinylated human IL-2 with C-terminal biotin acceptor peptide (human, UniProt P60568 21-153, biotinylated with BirA ligase on the C-terminal biotin acceptor peptide); assay: flow cytometry competition: soluble IL-2Rα titrated against 10 nM biotinylated IL-2; competitor is the yeast-displayed 602 scFv
T1 construct: Immobilized on streptavidin tips in BLI and used as the soluble labelled ligand in the yeast display assays; also called biotinylated hIL-2; immobilized hIL-2

[2] = target: T1, biotinylated human IL-2 with C-terminal …; assay: flow cytometry competition: soluble IL-2Rα titrated against 5 nM biotinylated IL-2; competitor is the yeast-displayed F10 scFv
[3] = target: T1, biotinylated human IL-2 with C-terminal …; assay: flow cytometry on yeast displaying the scFv, 5 nM soluble biotinylated IL-2 co-incubated with soluble IL-2Rα
Experimental: (§1) Cells were then washed and stained with a 1:200 dilution of AlexaFluor 647-complexed streptavidin (Thermo Fisher Scientific) in PBSA for 15 minutes at 4° C. After a final wash, cells were analyzed for target binding using a CytoFLEX flow cytometer (Beckman Coulter). Background-subtracted and normalized binding curves were fitted to a first-order binding model and equilibrium dissociation constant (KD) values were determined using GraphPad Prism software.

[4] = target: T1, biotinylated human IL-2 with C-terminal …; assay: flow cytometry, titration of soluble biotinylated IL-2 on yeast displaying the scFv, streptavidin-AF647 detection
Experimental: as §1

[5] = target: T1, biotinylated human IL-2 with C-terminal …; assay: bio-layer interferometry (Octet), equilibrium titration on immobilized hIL-2

EC50 (read off the curve) [4]: ~10 nM
B3: yeast-displayed 602 single-chain variable fragment (VH-(G4S)3-VL, fused to Aga2) (scFv)
scFv: EVQLQESGPGLVAPSQSLSITCTVSGFSLTNYDISWIRQPPGKGLEWLGVIWTGGGTNYNSGFMSRLSITKDNSKSQVFLKMNSLQTDDTAIYYCVRQGRTPYWGQGTLVTVSAGGGGSGGGGSGGGGSDIQVTQSPSSLSVSLGDRVTITCKASKDIYNRLAWYQQKPGNAPRLLISGATSLETGVPSRFSGSGSGKDYTLTITSLQTEDVATYYCQQFWGTPYTFGGGTKLEIK
notes: not shown: N-terminal Aga2, (G4S)3 linker, 3C and factor Xa cleavage sites; C-terminal c-Myc tag

Kd [5]: 3.5 nM
B4: recombinant 602 antibody (anti-human IL-2), mouse IgG2a kappa (antibody, V domains shown)
VH: EVQLQESGPGLVAPSQSLSITCTVSGFSLTNYDISWIRQPPGKGLEWLGVIWTGGGTNYNSGFMSRLSITKDNSKSQVFLKMNSLQTDDTAIYYCVRQGRTPYWGQGTLVTVSA
VL: DIQVTQSPSSLSVSLGDRVTITCKASKDIYNRLAWYQQKPGNAPRLLISGATSLETGVPSRFSGSGSGKDYTLTITSLQTEDVATYYCQQFWGTPYTFGGGTKLEIKR
notes: They are built here from the component entries so that the signal peptides are left out; also called MAB602

Continued, binder first:

B1: human IL-2Rα extracellular domain, soluble, with C-terminal hexahistidine tag (receptor)
chain: ELCDDDPPEIPHATFKAMAYKEGTMLNCECKRGFRRIKSGSLYMLCTGNSSHSSWDNQCQCTSSATRNTTKQVTPQPEEQKERKTTEMQSPMQPVDQASLPGHCREPPPWENEATERIYHFVVGQMVYYQCVQGYRALHRGPAESVCKMTHGKTRWTQPQLICTGEMETSQFPGEEKPQASPEGRPESETSCLVTTTDFQIQTEMAATMETSIFTTEYQHHHHHH
notes: extracellular domain; also called soluble IL-2Rα
IC50 (read off the curve) [1]: ~60 nM
IC50 (read off the curve) [2]: ~300 nM

B2: yeast-displayed F10 single-chain variable fragment (variant of the 602 scFv) (scFv)
scFv: B3 scFv with T101S, F220S, G222D
notes: also called F10 scFv; evolved F10 scFv; not shown: N-terminal Aga2, (G4S)3 linker, 3C and factor Xa cleavage sites; C-terminal c-Myc tag
binding result [3]: binds

From patent publication US20220372098A1 (Johns Hopkins, published 2022)
